Data taken from PMC3694306.

Experiments:
[1] = biological target: EssB (full-length, membrane-bound, Geobacillus thermodenitrificans NG80-2) (Geobacillus thermodenitrificans NG80-2); assay: SEC; detergent-solubilised membrane-bound protein; Superdex200 HR 30/100 GL, buffers with 0.02% DDM and 1 ug/ml DOPC
[2] = biological target: EssB-C (C-terminal extracytosolic fragment of EssB, Ala241 to Lys428) (Geobacillus thermodenitrificans NG80-2); assay: SEC; soluble fragments; Superdex75 prep grade HR 16/60, buffer C (10 mM sodium phosphate pH 7.8, 20 mM NaCl, 0.5 mM TCEP), column calibrated with molecular mass standards
[3] = biological target: EssB-C (C-terminal extracytosolic fragment of EssB, Ala241 to Lys428) (Geobacillus thermodenitrificans NG80-2); assay: crystal structure; EssB-C, tetragonal P4(3)2(1)2, two molecules in the asymmetric unit, 2.1 M malate pH 7.0, 3.2 Å; dimer made by crystallographic symmetry
[4] = biological target: EssB-C^Δ (C-terminally truncated extracytosolic fragment of EssB, Ala241 to Gln397) (Geobacillus thermodenitrificans NG80-2); assay: SEC; soluble fragments; Superdex75 prep grade HR 16/60, buffer C (10 mM sodium phosphate pH 7.8, 20 mM NaCl, 0.5 mM TCEP), column calibrated with molecular mass standards
[5] = biological target: EssB-C^Δ (C-terminally truncated extracytosolic fragment of EssB, Ala241 to Gln397) (Geobacillus thermodenitrificans NG80-2); assay: crystal structure; EssB-C^Δ, monoclinic C2, four molecules in the asymmetric unit, 3.0 M malonate pH 7.0, 10 mM ZnCl2, 2.4 Å; dimer made by crystallographic symmetry
[6] = biological target: EssB-N (N-terminal, predicted cytoplasmic fragment of EssB, Ser2 to Asp214) (Geobacillus thermodenitrificans NG80-2); assay: SEC; EssB-N (2 mg) in 100 mM citrate pH 5.5, 300 mM NaCl, 0.5% TCEP, 10% glycerol, 30 min at room temperature, Superdex75 HR 30/100 GL
[7] = biological target: EssB-N (N-terminal, predicted cytoplasmic fragment of EssB, Ser2 to Asp214) (Geobacillus thermodenitrificans NG80-2); assay: native gel or EMSA; blue native PAGE, linear 4-16% gradient Native Bis-Tris gel, 3 ug purified EssB-N
[8] = biological target: EssB-N (N-terminal, predicted cytoplasmic fragment of EssB, Ser2 to Asp214) (Geobacillus thermodenitrificans NG80-2); assay: SEC; EssB-N (2 mg) in various test buffers with 0.5% TCEP and 10% glycerol (Tris-HCl pH 7.8 with 20 mM NaCl, with or without 5 mM EDTA; phosphate pH 7.8 or Bis-Tris pH 5.5 with 300 mM NaCl), 30 min at room temperature, Superdex75 HR 30/100 GL
[9] = biological target: EssB-N D54C (cysteine-free template C48S, C108S, C171S), MTSSL spin-labelled (Geobacillus thermodenitrificans NG80-2); assay: SEC; EssB-N cysteine mutants before and after MTSSL labelling (data not shown)
[10] = biological target: EssB-N D54C (cysteine-free template C48S, C108S, C171S), before MTSSL labelling (Geobacillus thermodenitrificans NG80-2); assay: as above
[11] = biological target: EssB^Δ (membrane-bound EssB truncated by 31 C-terminal residues) (Geobacillus thermodenitrificans NG80-2); assay: SEC; detergent-solubilised membrane-bound protein; Superdex200 HR 30/100 GL, buffers with 0.02% DDM and 1 ug/ml DOPC
[12] = biological target: EssB^Δ D54C (cysteine-free template C48S, C108S, C171S), MTSSL spin-labelled (Geobacillus thermodenitrificans NG80-2); assay: as above
[13] = biological target: EssB^Δ E59C (cysteine-free template C48S, C108S, C171S), MTSSL spin-labelled (Geobacillus thermodenitrificans NG80-2); assay: as above
[14] = biological target: EssB^Δ E139C (cysteine-free template C48S, C108S, C171S), MTSSL spin-labelled (Geobacillus thermodenitrificans NG80-2); assay: as above
[15] = biological target: EssB^Δ E197C (cysteine-free template C48S, C108S, C171S), MTSSL spin-labelled (Geobacillus thermodenitrificans NG80-2); assay: as above
[16] = biological target: EssB^Δ E273C (cysteine-free template C48S, C108S, C171S), MTSSL spin-labelled (Geobacillus thermodenitrificans NG80-2); assay: as above
[17] = biological target: EssB^Δ N115C (cysteine-free template C48S, C108S, C171S), MTSSL spin-labelled (Geobacillus thermodenitrificans NG80-2); assay: as above
[18] = biological target: EssB^Δ R86C (cysteine-free template C48S, C108S, C171S), MTSSL spin-labelled (Geobacillus thermodenitrificans NG80-2); assay: as above
[19] = biological target: EssB^Δ S93C (cysteine-free template C48S, C108S, C171S), MTSSL spin-labelled (Geobacillus thermodenitrificans NG80-2); assay: as above

EssB (full-length, membrane-bound, Geobacillus thermodenitrificans NG80-2) (natural protein)
stoichiometry N [1]: 2

EssB-C (C-terminal extracytosolic fragment of EssB, Ala241 to Lys428) (domain or fragment)
stoichiometry N [2]: 2 | stoichiometry N [3]: 2

EssB-C^Δ (C-terminally truncated extracytosolic fragment of EssB, Ala241 to Gln397) (domain or fragment)
stoichiometry N [4]: 2 | stoichiometry N [5]: 2

EssB-N (N-terminal, predicted cytoplasmic fragment of EssB, Ser2 to Asp214) (domain or fragment)
percent monomeric [6]: > 10% | stoichiometry N [7]: 2 | stoichiometry N [8]: 2

EssB-N D54C (cysteine-free template C48S, C108S, C171S), MTSSL spin-labelled (domain or fragment)
stoichiometry N [9]: 2

EssB-N D54C (cysteine-free template C48S, C108S, C171S), before MTSSL labelling (domain or fragment)
stoichiometry N [10]: 2

EssB^Δ (membrane-bound EssB truncated by 31 C-terminal residues) (domain or fragment)
stoichiometry N [11]: 2

EssB^Δ D54C (cysteine-free template C48S, C108S, C171S), MTSSL spin-labelled (domain or fragment)
stoichiometry N [12]: 2

EssB^Δ E59C (cysteine-free template C48S, C108S, C171S), MTSSL spin-labelled (domain or fragment)
stoichiometry N [13]: 2

EssB^Δ E139C (cysteine-free template C48S, C108S, C171S), MTSSL spin-labelled (domain or fragment)
stoichiometry N [14]: 2

EssB^Δ E197C (cysteine-free template C48S, C108S, C171S), MTSSL spin-labelled (domain or fragment)
stoichiometry N [15]: 2

EssB^Δ E273C (cysteine-free template C48S, C108S, C171S), MTSSL spin-labelled (domain or fragment)
stoichiometry N [16]: 2

EssB^Δ N115C (cysteine-free template C48S, C108S, C171S), MTSSL spin-labelled (domain or fragment)
stoichiometry N [17]: 2

EssB^Δ R86C (cysteine-free template C48S, C108S, C171S), MTSSL spin-labelled (domain or fragment)
stoichiometry N [18]: 2

EssB^Δ S93C (cysteine-free template C48S, C108S, C171S), MTSSL spin-labelled (domain or fragment)
stoichiometry N [19]: 2
